The values below come from doi:10.1101/2025.08.03.668247, “The structure of Egalitarian in complex with the K10 mRNA localization signal reveals a modular binding surface required for function”.

The Kd is the free concentration of one partner at which half of the binding sites on the other are occupied at equilibrium, for simple one-to-one binding.

Holding throughout (test): fluorescence anisotropy; FA: 20 mM HEPES-NaOH pH 7.5, 100 mM NaCl, 10% glycerol, 20 C, 10 nM FAM-RNA; competition: 150 nM Egl512-819 + 10 nM FAM-K10 TLS, same buffer
Conditions in all cases: protein: recombinant; tags: N-terminal GST; label: 5'-6-FAM; hairpin with two bulges

One series has as its target T1, K678E (Drosophila melanogaster, UniProt Q9W1K4 512-819, K678E).
T1 sequence: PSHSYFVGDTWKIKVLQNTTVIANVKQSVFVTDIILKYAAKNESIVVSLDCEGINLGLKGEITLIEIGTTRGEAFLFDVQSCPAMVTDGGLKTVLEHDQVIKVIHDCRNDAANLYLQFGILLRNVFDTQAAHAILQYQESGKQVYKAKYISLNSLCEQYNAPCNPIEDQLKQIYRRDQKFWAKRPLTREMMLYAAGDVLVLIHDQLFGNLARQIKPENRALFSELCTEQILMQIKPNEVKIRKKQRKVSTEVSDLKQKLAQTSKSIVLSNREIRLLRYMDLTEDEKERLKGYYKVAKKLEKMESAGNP

In another series the target is T2, K758A (Drosophila melanogaster, UniProt Q9W1K4 512-819, K758A).
T2 sequence: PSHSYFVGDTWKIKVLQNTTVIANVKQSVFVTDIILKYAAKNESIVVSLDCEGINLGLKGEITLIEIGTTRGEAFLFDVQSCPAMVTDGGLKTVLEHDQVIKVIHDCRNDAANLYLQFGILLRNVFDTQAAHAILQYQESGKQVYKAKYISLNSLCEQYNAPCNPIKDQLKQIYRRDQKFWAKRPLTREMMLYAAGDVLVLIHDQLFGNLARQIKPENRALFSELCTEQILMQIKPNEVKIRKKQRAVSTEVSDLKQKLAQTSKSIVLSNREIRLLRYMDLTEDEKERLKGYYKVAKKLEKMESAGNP

Another series has as its target T3, K751E (Drosophila melanogaster, UniProt Q9W1K4 512-819, K751E).
T3 sequence: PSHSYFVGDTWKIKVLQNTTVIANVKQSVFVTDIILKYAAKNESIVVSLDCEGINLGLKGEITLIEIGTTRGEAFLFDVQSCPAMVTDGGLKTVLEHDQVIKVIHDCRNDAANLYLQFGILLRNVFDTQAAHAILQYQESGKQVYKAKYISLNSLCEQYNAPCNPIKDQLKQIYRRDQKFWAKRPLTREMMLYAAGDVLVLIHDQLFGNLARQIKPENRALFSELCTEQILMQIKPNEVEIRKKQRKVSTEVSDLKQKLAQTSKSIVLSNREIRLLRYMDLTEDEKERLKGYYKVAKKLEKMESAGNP

The target of the next series is T4, Y685A (Drosophila melanogaster, UniProt Q9W1K4 512-819, Y685A).
T4 sequence: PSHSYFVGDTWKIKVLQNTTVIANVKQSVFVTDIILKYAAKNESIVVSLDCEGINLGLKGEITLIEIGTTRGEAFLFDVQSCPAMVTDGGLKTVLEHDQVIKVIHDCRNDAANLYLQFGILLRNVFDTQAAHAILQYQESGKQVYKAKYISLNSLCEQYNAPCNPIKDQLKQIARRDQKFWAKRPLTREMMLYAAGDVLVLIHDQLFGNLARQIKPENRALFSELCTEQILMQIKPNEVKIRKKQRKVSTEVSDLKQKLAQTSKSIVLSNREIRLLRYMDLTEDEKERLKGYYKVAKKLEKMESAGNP

The target of the next series is T5, EXO-L (Egl512-770) (Drosophila melanogaster, UniProt Q9W1K4 512-770).
T5 sequence: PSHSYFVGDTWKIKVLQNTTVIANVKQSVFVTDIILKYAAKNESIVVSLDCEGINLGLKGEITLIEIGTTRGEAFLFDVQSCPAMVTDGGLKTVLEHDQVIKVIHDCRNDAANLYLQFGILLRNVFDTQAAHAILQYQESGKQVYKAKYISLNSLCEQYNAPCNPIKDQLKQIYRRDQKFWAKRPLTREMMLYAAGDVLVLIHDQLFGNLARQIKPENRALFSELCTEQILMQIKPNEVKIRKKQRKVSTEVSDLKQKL

A further series deals with T6, K678A (Drosophila melanogaster, UniProt Q9W1K4 512-819, K678A).
T6 sequence: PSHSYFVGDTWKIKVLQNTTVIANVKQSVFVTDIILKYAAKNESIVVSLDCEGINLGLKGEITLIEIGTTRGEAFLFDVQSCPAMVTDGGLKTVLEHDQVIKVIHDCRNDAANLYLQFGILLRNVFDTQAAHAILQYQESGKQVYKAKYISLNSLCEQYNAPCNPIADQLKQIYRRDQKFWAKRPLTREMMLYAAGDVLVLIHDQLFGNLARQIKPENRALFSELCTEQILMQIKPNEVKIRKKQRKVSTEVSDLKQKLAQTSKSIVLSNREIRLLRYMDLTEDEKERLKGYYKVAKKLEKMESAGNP

Take CUUGAUUGUAUUUUUAAAUUAAUUCUUAAAAACUACAAAUUAAG (structured_RNA) [K10 TLS (FAM)]: the Kd in the series with K678E turned out to be 195 ± 9 nM; with K758A, 319 ± 19 nM; with K751E, 139 ± 28 nM; in the series with Y685A, 221 ± 11 nM; in the series with EXO-L (Egl512-770) it was 807 ± 104 nM; in the series with K678A, 295 ± 8 nM.
